Patent publication EP4725963A1

Molecular target: human NPR1 full-length protein overexpressed on CHO-K1 cells (human) (UniProt P16066)
Experiment: cell-based or functional assay

Chain of human NPR1 full-length protein overexpressed on CHO-K1 cells (human) (P16066 33-1061): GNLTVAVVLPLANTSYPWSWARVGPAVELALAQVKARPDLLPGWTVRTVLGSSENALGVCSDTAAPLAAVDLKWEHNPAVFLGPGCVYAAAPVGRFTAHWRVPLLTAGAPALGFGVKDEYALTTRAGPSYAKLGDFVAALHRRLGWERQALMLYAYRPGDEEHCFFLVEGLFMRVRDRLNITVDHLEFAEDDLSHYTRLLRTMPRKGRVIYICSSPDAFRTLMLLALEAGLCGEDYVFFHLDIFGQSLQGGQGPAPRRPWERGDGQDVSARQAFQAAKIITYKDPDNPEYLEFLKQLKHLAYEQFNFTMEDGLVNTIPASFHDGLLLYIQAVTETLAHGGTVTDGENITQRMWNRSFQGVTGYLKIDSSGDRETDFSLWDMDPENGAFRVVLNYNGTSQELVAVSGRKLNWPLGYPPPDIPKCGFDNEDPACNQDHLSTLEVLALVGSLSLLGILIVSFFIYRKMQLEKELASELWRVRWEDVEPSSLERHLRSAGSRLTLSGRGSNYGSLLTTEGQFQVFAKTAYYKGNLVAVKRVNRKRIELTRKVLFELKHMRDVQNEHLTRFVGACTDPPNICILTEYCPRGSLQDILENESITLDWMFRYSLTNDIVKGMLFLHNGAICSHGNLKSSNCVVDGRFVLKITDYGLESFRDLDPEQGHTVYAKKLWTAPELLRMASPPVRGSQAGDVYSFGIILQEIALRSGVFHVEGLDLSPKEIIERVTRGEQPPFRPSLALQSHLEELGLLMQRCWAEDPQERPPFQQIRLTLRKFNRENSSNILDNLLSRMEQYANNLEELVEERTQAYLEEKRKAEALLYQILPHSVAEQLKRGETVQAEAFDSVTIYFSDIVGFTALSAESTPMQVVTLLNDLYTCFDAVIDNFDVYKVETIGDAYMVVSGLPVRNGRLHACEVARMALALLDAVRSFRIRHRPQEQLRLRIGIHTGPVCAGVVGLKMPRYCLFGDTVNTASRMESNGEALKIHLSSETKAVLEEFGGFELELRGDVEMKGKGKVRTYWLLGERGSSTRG

Substance REGN-5381 (antibody) has a Ratio (without ANP) of NPR1 antigens remaining on the cell surface after endocytosis to the initial number, 10 min, 20 µg/mL of 0.56, a Ratio (without ANP) of NPR1 antigens remaining on the cell surface after endocytosis to the initial number, 1 h, 20 µg/mL of 0.46 and a Ratio (without ANP) of NPR1 antigens remaining on the cell surface after endocytosis to the initial number, 7 hrs, 20 µg/mL of 0.3. It also gave a Ratio (without ANP) of NPR1 antigens remaining on the cell surface after endocytosis to the initial number, 24 hrs, 20 µg/mL of 0.39 and a Sum of signal changes (cGMP production in cells before and after endocytosis treatment) of 1.08.
